{
  "source": "patent US20130196320A1",
  "about": "“METHOD FOR IMPROVING CLEAVAGE OF DNA BY ENDONUCLEASE SENSITIVE TO METHYLATION” (CELLECTIS, priority 2010, published 2013)",
  "molecules": {"B1": {"name": "ADCY9: engineered meganuclease (SEQ ID NO: 3) designed to cleave adenylate cyclase 9 gene (protein)", "chain": "MANTKYNEEFLLYLAGFVDGDGSIIAQIKPNQSYKFKHQLSLTFRVTQKTQRRWFLDKLVDEIGVGYVRDSGSVSNYDLSEIKPLHNFLTQLQPFLELKQKQANLVLKIIEQLPSAKESPDKFLEVCTWVDQVAALNDSKTRKTTSETVRAVLDSLSEKKKSSPAAGGSDKYNQALSKYNQALSKYNQALSGGGGSNKKFLLYLAGFVDSDGSIIAQIKPDQSYKFKHQLGLTFQVTQKTQRRWFLDKLVDRIGVGYVRDRGSVSDYILSEIKPLHNFLTQLQPFLKLKQKQANLVLKIIEQLPSAKESPDKFLEVCTWVDQVAALNDSKTRKTTSETVRAVLDSLSEKKKSSP"}, "B2": {"name": "XPC4: engineered meganuclease (SEQ ID NO: 2) designed to cleave xeroderma pigmentosum group C gene (XPC) (protein)", "chain": "MANTKYNEEFLLYLAGFVDGDGSIIAQIKPNQSHKFKHALQLTFKVTQKTQRRWFLDKLVDEIGVGYVQDSGSVSNYILSEIKPLHNFLTQLQPFLELKQKQANLALKIIEQLPSAKESPDKFLEVCTWVDQVAALNDSKTRKTTSETVRAVLDSLSEKKKSSPAAGGSDKYNQALSKYNQALSKYNQALSGGGGSNKKFLLYLAGFVDSDGSIIAQIKPNQSHKFKHQLSLAFQVTQKTQRRWFLDKLVDRIGVGYVRDRGSVSDYILSKIKPLHNFLTQLQPFLKLKQKQANLVLKIIEQLPSAKESPDKFLEVCTWVDQVAALNDSKTRKTTSETVRAVLDSLSEKKKSSP"}, "B3": {"name": "I-CreI: wild-type I-CreI meganuclease (… homing endonuclease), SEQ ID NO: 1, recombinant Cterm His-tag (protein, listed as Chlamydomonas reinhardtii)", "chain": "MNTKYNKEFLLYLAGFVDGDGSIIAQIKPNQSYKFKHQLSLTFQVTQKTQRRWFLDKLVDEIGVGYVRDRGSVSDYILSEIKPLHNFLTQLQPFLKLKQKQANLVLKIIEQLPSAKESPDKFLEVCTWVDQIAALNDSKTRKTTSETVRAVLDSLSEKKKSSP", "modifications": "C-terminal His-tag"}},
  "key": {"[1]": {"tested_on": "XPC4 target locus in 293H cells", "test": "Meganuclease-induced mutagenesis at XPC4 target locus by deep sequencing, 5-aza-2-deoxycytidine treatment", "type": "cell-based, human", "procedure": "FIG. 10: Frequencies of mutagenesis events measured by deep sequencing. Cells were pre-treated with 5-aza-2-deoxycytidine at 0.2 μM or 1 μM 48 hours before transfection with XPC4 meganuclease or empty vector. The treatment was maintained 48 hours post-transfection. Two days post-transfection, the genomic DNA was extracted and a PCR with primers surrounding target site was performed. The results were expressed as a percentage of PCR fragments containing a mutation.\nThe human 293H cells (ATCC) were plated at a density of 1.2×10^6 cells per 10 cm dish in complete medium (DMEM supplemented with 2 mM L-glutamine, penicillin (100 IU/ml), streptomycin (100 μg/ml), amphotericin B (Fongizone: 0.25 μg/ml, Invitrogen-Life Science) and 10% FBS) supplemented with 5-aza-deoxycytidine. The next day, cells were transfected with 3 μg of meganuclease expression vector in the presence of 5-aza-deoxycytidine and Lipofectamine 2000 transfection reagent (Invitrogen) according to the manufacturer's protocol.\nCells were pre-treated with 5-aza-deoxycytidine at 0.2 μM or 1 μM 48 hours before transfection and the treatment was maintained 48 hours post-transfection. As a control, cells not treated with 5-aza-2-deoxycytidine (NT) were used. Extraction of genomic DNA was performed 48 hours after transfection.\nAfter genomic DNA extraction, the XPC4 target locus was amplified with specific primers flanked by specific adaptator needed for HTS sequencing on the 454 sequencing system (454 Life Sciences)\n5000 to 10 000 sequences per sample were analyzed."}, "[2]": {"tested_on": "ADCY9 endogenous recognition site in 293H cells", "test": "Meganuclease-induced mutagenesis assay at ADCY9 recognition site", "type": "cell-based, human", "procedure": "The human 293H cells (ATCC) were plated at a density of 1.2×10^6 cells per 10 cm dish in complete medium (DMEM supplemented with 2 mM L-glutamine, penicillin (100 IU/ml), streptomycin (100 μg/ml), amphotericin B (Fongizone: 0.25 μg/ml, Invitrogen-Life Science) and 10% FBS). The cells were pre-treated with 5-aza-deoxycytidine at 0.2 μM or 1 μM, 48 hours before transfection and the treatment was maintained 48 hours post-transfection. The medium was changed every day. The cells were transfected with 5 μg of DNA plasmids encoding meganuclease using Lipofectamine 2000 transfection reagent (Invitrogen) according to the manufacturer's protocol.\nThe efficiency of the meganuclease to promote mutagenesis at its endogenous recognition site was evaluated by sequencing the DNA surrounding the meganuclease cleavage site.\nTwo days post-transfection, genomic DNA was extracted. 200 ng of genomic DNA were used to amplify (PCR amplification) the endogenous locus surrounding the meganuclease cleavage site. PCR amplification is performed to obtain a fragment flanked by specific adaptor sequences [adaptor A: 5′-[…]-NNNN-3′ (SEQ ID NO: 46) and adaptor B, 5′-[…]-3′ (SEQ ID NO: 47)] provided by the company offering sequencing service (GATC Biotech AG, Germany) on the 454 sequencing system (454 Life Sciences). The primers sequences used for PCR amplification were: ADCY9_F3: 5′-[…]-NNNN-[…]-3′ (SEQ ID NO: 48) and ADCY9_R3: 5′-[…]-[…]-3′ (SEQ ID NO: 49). Sequences specific to the locus are underlined. The sequence NNNN in primer F1 is a Barcode sequence (Tag) needed to link the sequence with a PCR product. The percentage of PCR fragments carrying insertion or deletion at the meganuclease cleavage site is related to the mutagenesis induced by the meganuclease through NHEJ pathway in a cell population, and therefore correlates with the meganuclease activity at its endogenous recognition site. 5000 to 10000 sequences were analyzed per conditions."}, "[3]": {"tested_on": "random target (stretch of 12 GA repeats)", "test": "In vitro single turn over cleavage assay with random target", "type": "biochemical"}, "[4]": {"molecular_target": "random target (stretch of 12 GA repeats)", "test": "In vitro binding assay with random target", "procedure": "Fluorescein labeled C1234 oligonucleotides were synthesized and HPLC-purified by Eurogentec. To prepare C 1234 duplex corresponding to I-Cre I double strand DNA wild type target, C1234 forward (SEQ ID NO: 31, “a” strand below) labeled with Fluorescein on its 5′ end was mixed with 1 equivalent of C1234_reverse (SEQ ID NO: 32, “b” strand below) in 100 mM Tris-HCl, 50 mM EDTA, 150 mM NaCl, pH8. The mixture was heated to 95° C. for 2 min and then cooled down to 25° C. over 1 hour. C1234 duplex was eventually purified by anion exchange chromatography using a miniQ PE column (GE healthcare) pre-equilibrated with buffer A (20 mM Tris-HCl, pH7.4). Single stranded oligonucleotides and other contaminants were first discarded using a 0 to 360 mM NaCl step gradient and elution of pure C1234 duplex was performed with a 360-1000 mM NaCl linear gradient (5 column volumes). C 1234 duplex and fluorescein final concentrations were assessed by spectrophotometry using their respective extinction coefficients ε260nm=62900 M^−1 cm^−1 and ε495nm=83000 M^−1 cm^−1. As expected, a ratio [C1234 duplex]/[fluorescein]˜1 was obtained. […] After 30 minutes incubation, the fluorescence anisotropy of the mixture was recorded with a Pherastar Plus (BMG Labtech) operating in fluorescence polarization end point mode with excitation and emission wavelengths set to 495 and 520 nm respectively. Apparent dissociation constants were determined by fitting raw data by an hyperbolic function (Ax=(A∞*[Meganuclease])/(Kd+[Meganuclease]) with Ax, the fluorescence anisotropy value obtained at a given meganuclease concentration, A∞, the fluorescence anisotropy value obtained at saturating concentration of meganuclease and Kd the dissociation constant of the equilibrium studied)."}},
  "data": [
    {"molecule": "Nc1ncn([C@H]2C[C@H](O)[C@@H](CO)O2)c(=O)n1", "note": "[5-aza-2′deoxycytidine, reference compound]", "values": [
      {"measurement": "mutagenesis", "setting": "[1]; empty vector, 1 μM of 5-aza-2′deoxycytidine", "value": "low or absent"},
      {"measurement": "mutagenesis, PCR fragments carrying a mutation", "setting": "[2]; Empty vector, 0.2 μM 5-aza-2′-deoxycytidine", "value": 0.03, "unit": "%"},
      {"measurement": "mutagenesis, PCR fragments carrying a mutation", "setting": "[2]; Empty vector, 1 μM 5-aza-2′-deoxycytidine", "value": 0.03, "unit": "%"}
    ]},
    {"molecule": "B1", "values": [
      {"measurement": "mutagenesis, PCR fragments carrying a mutation", "setting": "[2]; ADCY9 meganuclease, 0 μM 5-aza-2′-deoxycytidine", "value": "0.16% ± 0.06"},
      {"measurement": "mutagenesis, PCR fragments carrying a mutation", "setting": "[2]; ADCY9 meganuclease, 0 μM 5-aza-2′-deoxycytidine, listed as ADCY9 meganuclease", "value": "0.16%±0.06"},
      {"measurement": "mutagenesis, PCR fragments carrying a mutation", "setting": "[2]; ADCY9 meganuclease, 0.2 μM 5-aza-2′-deoxycytidine", "value": "0.48% ± 0.01"},
      {"measurement": "mutagenesis, PCR fragments carrying a mutation", "setting": "[2]; ADCY9 meganuclease, 1 μM 5-aza-2′-deoxycytidine", "value": 0.36, "unit": "%"},
      {"measurement": "mutations", "setting": "[2]; ADCY9 meganuclease, samples treated with 5-aza-2′deoxycytidine, n=2", "value": "up to 0.48%±0.01"},
      {"measurement": "kcat", "setting": "[3]", "value": "<1.7e-06", "unit": "s⁻¹"},
      {"measurement": "Kd", "setting": "[4]", "value": "> 1000", "unit": "nM"}
    ]},
    {"molecule": "B2", "values": [
      {"measurement": "PCR fragments carrying a mutation", "setting": "[1]; XPC4 meganuclease, absence of 5-aza-2′deoxycytidine", "value": "0.2-0.5%"},
      {"measurement": "mutations", "setting": "[1]; XPC4 meganuclease, samples treated with 5-aza-2′deoxycytidine", "value": "up to 7.6%"},
      {"measurement": "kcat", "setting": "[3]", "value": "<1.7e-06", "unit": "s⁻¹"},
      {"measurement": "Kd", "setting": "[4]", "value": "> 1000", "unit": "nM"}
    ]},
    {"molecule": "B3", "values": [
      {"measurement": "kcat", "setting": "[3]", "value": "<1.7e-06", "unit": "s⁻¹"},
      {"measurement": "Kd", "setting": "[4]", "value": "> 1000", "unit": "nM"}
    ]}
  ]
}
